Source: patent publication US20140120109A1 (Regeneron, published 2014)

Legend:
[1] = molecular target: T1, full length human TL1A expressed on HEK293 cells (human, UniProt O95150 1-251); assay: flow, HEK293/hTL1A, mAb 1 ug/ml + 1 ug/ml soluble hTL1A
T1 construct: also called HEK293/hTL1A; cell-surface hTL1A
T1 sequence: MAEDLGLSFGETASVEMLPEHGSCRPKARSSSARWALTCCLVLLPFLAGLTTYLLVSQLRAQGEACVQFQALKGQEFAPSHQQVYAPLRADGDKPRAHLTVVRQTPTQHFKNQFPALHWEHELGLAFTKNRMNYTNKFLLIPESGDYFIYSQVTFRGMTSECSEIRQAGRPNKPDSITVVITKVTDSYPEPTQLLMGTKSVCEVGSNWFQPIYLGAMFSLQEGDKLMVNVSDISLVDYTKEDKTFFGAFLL
Method: (§1) Human embryonic kidney 293 cells stably transfected to over-express cell-surface hTL1A were first stained in a flow cytometric experiment with eight anti-hTL1A antibodies at four concentrations (1, 0.1, 0.01, and 0.003 μg/ml). […] The lowest antibody concentration providing significant staining levels was then used in a competition binding experiment. A negative isotype control antibody (human IgG4) was used at 1 μg/ml to define the background signal. For the competition experiment, eight antibody samples, at the minimal concentrations identified above, were first treated with soluble hTL1A expressed from CHO cells at concentrations ranging from 0.03 μg/ml to 10 μg/ml. After pre-incubation for 30 min on ice, the antibody/hTL1A mixture was added to 293/HEK-hTL1A cells that had been isolated by centrifugation in a 96-well conical plate. After incubation for an additional 10 minutes on ice, the cells were washed. The secondary reagent, anti-h Fcγ-APC F(ab′)₂, was added to all wells at a 200-fold dilution to detect bound antibodies. Samples were incubated for 15 minutes on ice, away from light, and then washed. Cells were processed on an BD™ LSR II Flow Cytometer (BD Biosciences) to detect anti-hTL1A antibodies bound to the cell surface, and data were analyzed using FlowJo software (version 8.8.6; Tree Star Inc.). Maximum signal: Anti-hTL1A antibody binding in the absence of soluble hTL1A; Minimum signal: Signal recorded when […] of isotype control antibody was added in place of the anti-hTL1A antibody. NT: Not tested.

[2] = molecular target: T1, full length human TL1A expressed on …; assay: flow, HEK293/hTL1A, mAb 1 ug/ml + 3 ug/ml soluble hTL1A
Method: as §1

[3] = molecular target: T1, full length human TL1A expressed on …; assay: flow, HEK293/hTL1A, mAb 1 ug/ml, no soluble hTL1A (maximum signal)
Method: as §1

[4] = molecular target: T1, full length human TL1A expressed on …; assay: flow, HEK293/hTL1A, mAb 1 ug/ml + 0.03 ug/ml soluble hTL1A
Method: as §1

[5] = molecular target: T2, human TL1A, soluble, CHO-expressed, residues 72-251 of SEQ ID NO:244 with N-terminal His6-tag (human, UniProt O95150 72-251); assay: cell-based or functional assay
T2 sequence: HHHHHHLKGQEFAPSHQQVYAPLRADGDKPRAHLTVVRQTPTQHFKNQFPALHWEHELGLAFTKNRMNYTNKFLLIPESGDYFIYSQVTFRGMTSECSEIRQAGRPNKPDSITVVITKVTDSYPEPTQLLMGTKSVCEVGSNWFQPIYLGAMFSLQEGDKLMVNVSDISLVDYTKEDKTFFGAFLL

[6] = molecular target: T3, cynomolgus monkey TL1A, soluble, CHO-expressed, residues 72-251 of SEQ ID NO:248 with N-terminal His6-tag (cynomolgus monkey (Macaca fascicularis), UniProt O95150 72-251 (human entry)); assay: SPR 37C, mAb captured; kd set at 1e-6 1/s
T3 construct: also called MfTL1A; MfTL1A (CHO)
T3 chain: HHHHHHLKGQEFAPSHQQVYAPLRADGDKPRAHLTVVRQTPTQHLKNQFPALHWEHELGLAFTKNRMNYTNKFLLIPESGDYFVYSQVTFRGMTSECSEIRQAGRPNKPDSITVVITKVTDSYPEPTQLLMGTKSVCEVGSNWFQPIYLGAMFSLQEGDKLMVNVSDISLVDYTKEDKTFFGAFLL
Method: Measurements were conducted on a T100 BIACORE™ instrument. […] Kinetic association (kₐ) and dissociation (kd) rate constants were determined by fitting the data to a 1:1 binding model using BIAevaluation 4.1 curve fitting software (BIAcore Life Sciences). Molar concentrations of TL1A/Fhm used in the data fitting assumed a monomeric state for TL1A in solution. Binding dissociation equilibrium constants (KD) and dissociative half-lives (t_{1/2}) were calculated from the kinetic rate constants as: KD (M)=kd/kₐ; and t_{1/2} (min)=[In2/(60*kd)].

B1: H4H1817N (antibody, human IgG4 S228P, V domains shown)
VH: QVQLQQWGAGLLKPSETLSLTCAVSGGSFSDYFWTWIRQPPGKGLEWIGEISHSGRTNYNPSLKSRVTISVDTSMSQFSLKMTSVTAADSAVYYCARDYPNWVFDYWGQGTLVTVSS
VL: EIELTQSPGTLSLSPGEGATLSCRASQSVFNSYLAWYQQKPGQAPRLLIYGASRRATGIPDRFSGSGSGTDFTLTISRLEPGDFAVYFCQQYGNSPLTFGGGTKVEIK
notes: human IgG4(S108P) form of H2M1817N
MFI [1]: 29.1
MFI [2]: 25.2
MFI [3]: 110
MFI [4]: 85.3
% Blocking IFN-g, D1, 1 ug/ml mAb [5]: 100%
% Blocking IFN-g, D1, 3 ug/ml mAb [5]: 100%
% Blocking IFN-g, D2, 1 ug/ml mAb [5]: 100%
% Blocking IFN-g, D2, 3 ug/ml mAb [5]: 100%
% Blocking IFN-g, D3, 1 ug/ml mAb [5]: 90%
% Blocking IFN-g, D3, 3 ug/ml mAb [5]: 100%
% Blocking IFN-g, D4, 1 ug/ml mAb [5]: 90%
% Blocking IFN-g, D4, 3 ug/ml mAb [5]: 100%
% Blocking IFN-g, D5, 1 ug/ml mAb [5]: 100%
% Blocking IFN-g, D5, 3 ug/ml mAb [5]: 100%
% Blocking IFN-g, D6, 1 ug/ml mAb [5]: 45%
% Blocking IFN-g, D6, 3 ug/ml mAb [5]: 100%
% Blocking IFN-g, D7, 1 ug/ml mAb [5]: 55%
% Blocking IFN-g, D7, 3 ug/ml mAb [5]: 100%
% Blocking IFN-g, D8, 1 ug/ml mAb [5]: 100%
% Blocking IFN-g, D8, 3 ug/ml mAb [5]: 100%
% Blocking IFN-g, D9, 1 ug/ml mAb [5]: 55%
% Blocking IFN-g, D9, 3 ug/ml mAb [5]: 95%
% Blocking IFN-g, D10, 1 ug/ml mAb [5]: 80%
% Blocking IFN-g, D10, 3 ug/ml mAb [5]: 85%

B2: H4H1742P (antibody, human IgG4 S228P, V domains shown)
VH: EVQLVESGGGLVQPGGSLRLSCAASGFTFSNYVMNWVRQAPGKGLEWVSVISGSGGSTHYADSVKGRFTISRDNSKDALYLQMNSLRAEDTAVYYCAKGPLEAYYYYNGMDVWGQGTTVTVSS
VL: DIQLTQSPSFLSASVGDRVTITCWASQAISSYLAWYQHKPGRAPKLLIYSTSTLQSGVPSRFSGSGSGTEFTLTISSLQPEDFATYYCQQLNSYPTFGQGTKLEIK
MFI [1]: 32.7
MFI [2]: 19.9
MFI [3]: 126
Kd [6]: ≤ 4.45 pM
t1/2 [6]: ≥ 192 h
MFI [4]: 126
